Results: paper PMC7352223 (2020)
No end group written: not given here.

T1: S100A1 (Homo sapiens, UniProt P23297)
T1 chain: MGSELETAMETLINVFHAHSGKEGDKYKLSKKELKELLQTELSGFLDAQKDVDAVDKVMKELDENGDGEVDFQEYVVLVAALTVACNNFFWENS


Key:
Calmodulin = Calmodulin (Homo sapiens, UniProt P0DP23); assay: fluorescence anisotropy
S100A1 = biological target: T1, S100A1; assay: fluorescence anisotropy

Row | Kd (Calmodulin) [nM] | Kd (S100A1) [µM] | Binder
1 | 2600 | 12 | PFIVISHLRLLLRQLCRRPRS (also: Ca2+) [TRPM4 (M4ct_WT)]
2 | 1300 | 2.7 | FGECYRSSEVRAARLLLRRCPL (cysteine pairing not given here; also: Ca2+) [TRPM4 (M4nt_WT)]
